The data set can be described thus: self-splicing fitness, log relative to wild type (ln ratio); higher = more splicing; Tetrahymena group I intron in knt gene, E. coli kanamycin selection, DiMSum; sequences stand for … in CUCUCU…GGAGGGAAAAGUUAUCAGGCAUGCACCUGGUAGCUAGUCUUUAAACCAAUAGAUUGCAUCGGUUUAAAAGGCAAGACCGUCAAAUUGCGGGAAAGGGGUCAACAGCCGUUCAGUACCAAGUCUCAGGGGAAACUUUGAGAUGGCCUUGCAAAGGGUAUGGUAAUAAGCUGACGGACAUGGUCCUAACCACGCAGCCAAGUCCUAAGUCAACAGAUCUUCUGUUGAUAUGGAUGCAGUUCACAGACUAAAUGUCGGUCGGGGAAGAUGUAUUCUUCUCAUAAGAUAUAGUCGGACCUCUCCUUAAUGGGAGCUAGCGGAUGAAGUGAUGCAACACUGGAGCCGCUGGGAACUAAUUUGUAUGCGAAAGUAUAUUGAUUAGUUUUGGAGUACUCGUGGUCG
An outline of the steps: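 A randomised library covering all eight P1ex-region intron nucleotides was built with the intron in the knt kanamycin-resistance gene on pET-22b(+) and held in E. coli BL21(DE3). Cells were grown overnight at 37°C or 30°C on LB agar, with or without 25 μg/mL kanamycin, plus 100 μg/mL carbenicillin, 50 μM IPTG and 0.2% rhamnose, and pooled colonies were amplicon-sequenced on an Illumina HiSeq 2500. DiMSum fitness is the error-weighted combination of wild-type-normalised replicate fold changes, kanamycin versus none.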

± gives the uncertainty stated by the source.

For the sequence UUAUAGCAAUAUUACGUCAG, the “self-splicing fitness (ln)” value reads like this: (30 °C) -1.61 ± 0.13; (37 °C) -0.818 ± 0.12.
On the same counts, the results for CCGCAGCAAUAUUACGCUCG are -1.9 ± 0.07 and -1.41 ± 0.094.
On the same counts, the results for AUAGAGCAAUAUUACGGUAG are -3.5 ± 0.16 and -1.38 ± 0.13.
AGUUAGCAAUAUUACGACGG: the “self-splicing fitness (ln)” value runs as follows: (30 °C) -0.829 ± 0.15; (37 °C) -0.189 ± 0.18.
Consider AUCAAGCAAUAUUACGAUAG, for which the “self-splicing fitness (ln)” value reads like this: (30 °C) -2.36 ± 0.35; (37 °C) -1.63 ± 0.43.
The like results for ACUAAGCAAUAUUACGUGGG were, in that order, -2.98 ± 0.14 and -2.81 ± 0.14.
The like results for GAGAAGCAAUAUUACGGCAC were, in that order, -1.28 ± 0.083 and -0.111 ± 0.15.
The like results for AGGAAGCAAUAUUACGGGGU were, in that order, -3.19 ± 0.21 and -3.13 ± 0.43.
Consider GCCAAGCAAUAUUACGGCGA, for which the “self-splicing fitness (ln)” value by setting is: (30 °C) -1.18 ± 0.093; (37 °C) -0.756 ± 0.095.
On to CCUUAGCAAUAUUACGAGAC, for which the “self-splicing fitness (ln)” value (37 °C) was -1.83 ± 0.25.
Turning to CAUGAGCAAUAUUACGCACA, the “self-splicing fitness (ln)” value was -2.8 ± 0.2 (30 °C) and -2.44 ± 0.23 (37 °C).
The like results for AAACAGCAAUAUUACGAUCU were, in that order, -0.534 ± 0.063 and 0.138 ± 0.076.
Take CAACAGCAAUAUUACGCGAA: the “self-splicing fitness (ln)” value is -2.16 ± 0.16 (30 °C) and -1.61 ± 0.14 (37 °C).
For AGACAGCAAUAUUACGGAUC, the “self-splicing fitness (ln)” value (30 °C) is -3.16 ± 0.2 and the “self-splicing fitness (ln)” value (37 °C) is -0.56 ± 0.17.
On the same counts, the results for UUGGAGCAAUAUUACGGUGG are -3.06 ± 0.16 and -3.08 ± 0.23.
Consider CGUGAGCAAUAUUACGACGA, for which the “self-splicing fitness (ln)” value (30 °C) is -1.92 ± 0.12 and the “self-splicing fitness (ln)” value (37 °C) was -0.885 ± 0.12.
As for GGGAAGCAAUAUUACGCUUA, the “self-splicing fitness (ln)” value was -0.798 ± 0.12 (30 °C) and -0.449 ± 0.12 (37 °C).
Turning to UCUUAGCAAUAUUACGCGAA, the “self-splicing fitness (ln)” value (37 °C) is -1.19 ± 0.3.
Consider ACGAAGCAAUAUUACGUCUG, for which the “self-splicing fitness (ln)” value was -0.601 ± 0.069 (30 °C) and -0.997 ± 0.092 (37 °C).
Take GUUGAGCAAUAUUACGGUGG: the “self-splicing fitness (ln)” value was -2.81 ± 0.33 (30 °C) and -2.81 ± 0.48 (37 °C).
The like results for CGCGAGCAAUAUUACGUGAU were, in that order, -2.82 ± 0.23 and -3.59 ± 0.37.
Consider GAGCAGCAAUAUUACGAAUC, for which the “self-splicing fitness (ln)” value reads like this: (30 °C) -2.08 ± 0.07; (37 °C) -1.22 ± 0.083.
The like results for GUUUAGCAAUAUUACGUGCG were, in that order, -0.649 ± 0.11 and -0.5 ± 0.11.
For the sequence ACGGAGCAAUAUUACGAGAG, the “self-splicing fitness (ln)” value reads like this: (30 °C) -2.06 ± 0.34; (37 °C) -2.22 ± 0.45.
For GUAGAGCAAUAUUACGGCGC, the “self-splicing fitness (ln)” value is -0.386 ± 0.18 (30 °C) and -0.378 ± 0.22 (37 °C).
On the same counts, the results for UGGCAGCAAUAUUACGACAG are -1.02 ± 0.087 and 0.224 ± 0.11.
The like results for AGCUAGCAAUAUUACGCCUG were, in that order, -1.6 ± 0.13 and -1.55 ± 0.17.
Regarding CCAGAGCAAUAUUACGCAUG, the “self-splicing fitness (ln)” value (30 °C) is -2.64 ± 0.16 and the “self-splicing fitness (ln)” value (37 °C) was -1.59 ± 0.16.
For CAUCAGCAAUAUUACGCAGU, the “self-splicing fitness (ln)” value (30 °C) is -2.02 ± 0.089 and the “self-splicing fitness (ln)” value (37 °C) was -1.78 ± 0.097.
For UGCUAGCAAUAUUACGAGGA, the “self-splicing fitness (ln)” value (30 °C) is -2.99 ± 0.26 and the “self-splicing fitness (ln)” value (37 °C) is -1.62 ± 0.17.
On the same counts, the results for GAGCAGCAAUAUUACGGCUU are -4.43 ± 0.33 and -2.53 ± 0.27.
Consider UACUAGCAAUAUUACGCUUG, for which the “self-splicing fitness (ln)” value (30 °C) is -1.44 ± 0.1 and the “self-splicing fitness (ln)” value (37 °C) was -1.64 ± 0.14.
The like results for CAAAAGCAAUAUUACGGGCG were, in that order, -0.0633 ± 0.084 and 0.608 ± 0.11.
AAGAAGCAAUAUUACGGCGC: the “self-splicing fitness (ln)” value was -0.183 ± 0.19 (30 °C) and -0.28 ± 0.25 (37 °C).
On to GUCGAGCAAUAUUACGGCCC, for which, under “37 °C”, the “self-splicing fitness (ln)” value is -1.43 ± 0.4.
With CACAAGCAAUAUUACGUCGC, the “self-splicing fitness (ln)” value (30 °C) was -3.09 ± 0.11 and the “self-splicing fitness (ln)” value (37 °C) was -2.41 ± 0.17.
On the same counts, the results for UGCUAGCAAUAUUACGAGUG are -1.98 ± 0.12 and -1.08 ± 0.11.
With UUGCAGCAAUAUUACGGAUU, the “self-splicing fitness (ln)” value was -2.96 ± 0.23 (30 °C) and -2.91 ± 0.33 (37 °C).
For GUAGAGCAAUAUUACGCAGC, the “self-splicing fitness (ln)” value is, setting by setting: (30 °C) -0.915 ± 0.17; (37 °C) -2.37 ± 0.22.
The like results for GUAUAGCAAUAUUACGAGCA were, in that order, -2.06 ± 0.2 and -1.12 ± 0.16.
On the same counts, the results for CCCUAGCAAUAUUACGCGUA are -2.29 ± 0.31 and -0.911 ± 0.2.
The like results for GCUCAGCAAUAUUACGGCAU were, in that order, -2.29 ± 0.2 and -1.72 ± 0.15.
Turning to AUAGAGCAAUAUUACGCACA, the “self-splicing fitness (ln)” value (30 °C) is -0.178 ± 0.09 and the “self-splicing fitness (ln)” value (37 °C) was -0.032 ± 0.11.
The like results for AUAAAGCAAUAUUACGUCAA were, in that order, -1.54 ± 0.088 and -0.873 ± 0.094.
On the same counts, the results for CGUCAGCAAUAUUACGAGCA are -0.74 ± 0.14 and -0.627 ± 0.14.
Turning to GUGCAGCAAUAUUACGCCUG, the “self-splicing fitness (ln)” value runs as follows: (30 °C) -2.95 ± 0.2; (37 °C) -2.49 ± 0.26.
With UUUUAGCAAUAUUACGCACG, the “self-splicing fitness (ln)” value is -0.889 ± 0.13 (30 °C) and -0.745 ± 0.17 (37 °C).
On to AAUGAGCAAUAUUACGGCUA, for which the “self-splicing fitness (ln)” value runs as follows: (30 °C) -2.14 ± 0.24; (37 °C) -0.372 ± 0.16.
On to CAGCAGCAAUAUUACGUUAC, for which the “self-splicing fitness (ln)” value (37 °C) is -2.34 ± 0.27.
For the sequence AAGUAGCAAUAUUACGUAAC, the “self-splicing fitness (ln)” value was -1.51 ± 0.13 (30 °C) and -2.24 ± 0.24 (37 °C).
Turning to ACACAGCAAUAUUACGACCC, the “self-splicing fitness (ln)” value is -0.35 ± 0.14 (30 °C) and -0.0588 ± 0.2 (37 °C).
Take CGGCAGCAAUAUUACGUGUC: the “self-splicing fitness (ln)” value was -3.89 ± 0.31 (30 °C) and -2.6 ± 0.2 (37 °C).
In the case of AACAAGCAAUAUUACGCUAC, the “self-splicing fitness (ln)” value (37 °C) is -3.21 ± 0.4.
CCAUAGCAAUAUUACGCAAA: the “self-splicing fitness (ln)” value (30 °C) was -1.93 ± 0.21 and the “self-splicing fitness (ln)” value (37 °C) is -2.15 ± 0.3.
On the same counts, the results for ACGUAGCAAUAUUACGAAUU are -1.42 ± 0.087 and -0.778 ± 0.11.
In the case of GGUGAGCAAUAUUACGAUGG, where the note is “37 °C”, the “self-splicing fitness (ln)” value is -1.2 ± 0.39.
Turning to UCGUAGCAAUAUUACGGAAA, the “self-splicing fitness (ln)” value is, setting by setting: (30 °C) -3.38 ± 0.35; (37 °C) -2.72 ± 0.31.
The like results for UUAUAGCAAUAUUACGCCUU were, in that order, -2.91 ± 0.26 and -0.144 ± 0.2.
For the sequence UAGCAGCAAUAUUACGAAUC, the “self-splicing fitness (ln)” value by setting is: (30 °C) -3.68 ± 0.42; (37 °C) -2.03 ± 0.27.
As for GUUAAGCAAUAUUACGUAAC, for the setting “30 °C”, the “self-splicing fitness (ln)” value was -3.15 ± 0.44.
Consider GACGAGCAAUAUUACGUCCU, for which the “self-splicing fitness (ln)” value (30 °C) is -3.24 ± 0.25 and the “self-splicing fitness (ln)” value (37 °C) is -1.81 ± 0.25.
On the same counts, the results for UACUAGCAAUAUUACGAAAA are -2.6 ± 0.35 and -2.26 ± 0.42.
The like results for GCAAAGCAAUAUUACGAAGC were, in that order, -1.83 ± 0.25 and -2.28 ± 0.34.
As to GCAAAGCAAUAUUACGUCUA, the “self-splicing fitness (ln)” value (30 °C) is -0.983 ± 0.13 and the “self-splicing fitness (ln)” value (37 °C) was -0.637 ± 0.11.
The like results for CCUAAGCAAUAUUACGCGAC were, in that order, -2.41 ± 0.3 and -3.61 ± 0.39.
The like results for GUUCAGCAAUAUUACGCGUG were, in that order, -0.852 ± 0.083 and 0.166 ± 0.088.
On to ACGCAGCAAUAUUACGUGAU, for which the “self-splicing fitness (ln)” value is, setting by setting: (30 °C) -1.78 ± 0.039; (37 °C) -0.783 ± 0.055.
Take GUAUAGCAAUAUUACGGGAA: the “self-splicing fitness (ln)” value (37 °C) was -2.54 ± 0.4.
With GAAUAGCAAUAUUACGUGUA, the “self-splicing fitness (ln)” value runs as follows: (30 °C) -1.82 ± 0.12; (37 °C) -1.49 ± 0.13.
On to UAGCAGCAAUAUUACGACUU, for which the “self-splicing fitness (ln)” value reads like this: (30 °C) -0.541 ± 0.098; (37 °C) 0.107 ± 0.11.
The like results for GCCUAGCAAUAUUACGGAAU were, in that order, -1.23 ± 0.074 and -0.307 ± 0.093.
Regarding GAAUAGCAAUAUUACGGAAU, the “self-splicing fitness (ln)” value (30 °C) was -2.69 ± 0.17 and the “self-splicing fitness (ln)” value (37 °C) was -1.66 ± 0.2.
On the same counts, the results for UUCAAGCAAUAUUACGCGCC are -0.923 ± 0.17 and -1.38 ± 0.25.
With GUCUAGCAAUAUUACGAACC, the “self-splicing fitness (ln)” value (30 °C) was -1.25 ± 0.19 and the “self-splicing fitness (ln)” value (37 °C) was -0.145 ± 0.28.
The like results for GUUGAGCAAUAUUACGGAUA were, in that order, -0.148 ± 0.24 and -1.65 ± 0.45.
As to UACAAGCAAUAUUACGGGAC, the “self-splicing fitness (ln)” value was -2.61 ± 0.16 (30 °C) and -2.58 ± 0.17 (37 °C).
The like results for AUACAGCAAUAUUACGGUCG were, in that order, -1.08 ± 0.068 and -0.545 ± 0.094.

The record behind these values is the supplement of paper PMC7877785.
